Experimental data taken from the supplement of paper PMC7877785.
± gives the uncertainty stated by the source.

Assay: self-splicing fitness, log relative to wild type (ln ratio); higher = more splicing; Tetrahymena group I intron in knt gene, E. coli kanamycin selection, DiMSum; sequences stand for … in CUCUCU…GGAGGGAAAAGUUAUCAGGCAUGCACCUGGUAGCUAGUCUUUAAACCAAUAGAUUGCAUCGGUUUAAAAGGCAAGACCGUCAAAUUGCGGGAAAGGGGUCAACAGCCGUUCAGUACCAAGUCUCAGGGGAAACUUUGAGAUGGCCUUGCAAAGGGUAUGGUAAUAAGCUGACGGACAUGGUCCUAACCACGCAGCCAAGUCCUAAGUCAACAGAUCUUCUGUUGAUAUGGAUGCAGUUCACAGACUAAAUGUCGGUCGGGGAAGAUGUAUUCUUCUCAUAAGAUAUAGUCGGACCUCUCCUUAAUGGGAGCUAGCGGAUGAAGUGAUGCAACACUGGAGCCGCUGGGAACUAAUUUGUAUGCGAAAGUAUAUUGAUUAGUUUUGGAGUACUCGUGGUCG
Summary of the method: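 Pooled colonies went to amplicon sequencing on an Illumina HiSeq 2500 after six replicate transformations. The plates were LB agar with 100 μg/mL carbenicillin, 50 μM IPTG and 0.2% rhamnose, with or without 25 μg/mL kanamycin, incubated overnight at 37°C or 30°C. The E. coli BL21(DE3) library had all eight P1ex-region intron nucleotides randomised, the intron placed in the knt kanamycin-resistance gene on pET-22b(+). DiMSum fitness is the error-weighted combination of replicate fold changes, kanamycin against none, normalised to wild type.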

Row | Sequence | self-splicing fitness (ln) (30 °C) | self-splicing fitness (ln) (37 °C)
1 | CAAGAGCAAUAUUACGGAAC | -3.74 ± 0.17 | -2.52 ± 0.19
2 | GCGCAGCAAUAUUACGUCGC | -2.27 ± 0.14 | -2.2 ± 0.27
3 | CACGAGCAAUAUUACGAAAC | -2.02 ± 0.36 | -1.68 ± 0.4
4 | UCCAAGCAAUAUUACGUGUG | -2.08 ± 0.066 | -1.75 ± 0.081
5 | AACAAGCAAUAUUACGCGGC | -3.28 ± 0.26 | -1.71 ± 0.19
6 | CAGAAGCAAUAUUACGUAGG | -0.872 ± 0.06 | 0.297 ± 0.1
7 | AAAAAGCAAUAUUACGGAUG | -2.17 ± 0.094 | -1.23 ± 0.095
8 | CGUGAGCAAUAUUACGUACA | -1.46 ± 0.053 | -0.707 ± 0.059
9 | UGGCAGCAAUAUUACGUAAU | -2.04 ± 0.082 | -1.05 ± 0.11
10 | CCUGAGCAAUAUUACGGUCG | -3.95 ± 0.19 | -2.97 ± 0.19
11 | CGCUAGCAAUAUUACGUUAC | -3.23 ± 0.31 | 
12 | GGAGAGCAAUAUUACGGCAG | -3.29 ± 0.38 | 
13 | CAACAGCAAUAUUACGAUAU | -4 ± 0.15 | -2.2 ± 0.13
14 | UGACAGCAAUAUUACGAUCU | -0.412 ± 0.07 | 0.277 ± 0.082
15 | UGAUAGCAAUAUUACGCGCG | -0.57 ± 0.086 | -0.283 ± 0.12
16 | UUUGAGCAAUAUUACGUGAU | -2.95 ± 0.33 | 
17 | UGAUAGCAAUAUUACGUAUC | -2.67 ± 0.48 | 
18 | UCCCAGCAAUAUUACGUACA | -1.92 ± 0.14 | -0.819 ± 0.1
19 | CGUAAGCAAUAUUACGCGCU | -2.03 ± 0.14 | -1.52 ± 0.15
20 | CGGAAGCAAUAUUACGGGAG | -2.37 ± 0.1 | -2.02 ± 0.17
21 | AACCAGCAAUAUUACGAUAU | -0.891 ± 0.057 | -0.0726 ± 0.089
22 | AGUCAGCAAUAUUACGAAGU | -1.48 ± 0.084 | -0.0211 ± 0.096
23 | AGUCAGCAAUAUUACGUGGA | -2.73 ± 0.19 | -2.41 ± 0.15
24 | CUCAAGCAAUAUUACGUGUC | -3.37 ± 0.11 | -1.65 ± 0.1
25 | UAGGAGCAAUAUUACGCACU |  | -0.383 ± 0.28

Row | Sequence | self-splicing fitness (ln) (30 °C) | self-splicing fitness (ln) (37 °C)
26 | GCAGAGCAAUAUUACGCAUC | -3.14 ± 0.34 | 
27 | CCAAAGCAAUAUUACGCUUU | -3.57 ± 0.16 | -2.73 ± 0.21
28 | UGAAAGCAAUAUUACGUUGC | -3.54 ± 0.19 | -2.58 ± 0.21
29 | GCGAAGCAAUAUUACGAUGU | -2.82 ± 0.15 | -1.42 ± 0.12
30 | UGCUAGCAAUAUUACGCUAC | -2.72 ± 0.48 | -2.32 ± 0.47
31 | GCCAAGCAAUAUUACGUGCU | -3.04 ± 0.11 | -1.56 ± 0.092
32 | CAUUAGCAAUAUUACGCCUA |  | -1.73 ± 0.31
33 | GUUAAGCAAUAUUACGAGAC |  | -0.662 ± 0.25
34 | CAAAAGCAAUAUUACGUGCA | -2.95 ± 0.12 | -1.96 ± 0.12
35 | CCCGAGCAAUAUUACGGUUU | -3.14 ± 0.11 | -1.96 ± 0.12
36 | GGCUAGCAAUAUUACGGAUA | -0.897 ± 0.13 | -0.492 ± 0.15
37 | GACAAGCAAUAUUACGUAAG | -2.11 ± 0.12 | -1.36 ± 0.14
38 | UCCAAGCAAUAUUACGCAUU | -4.05 ± 0.21 | -2.35 ± 0.23
39 | UCGUAGCAAUAUUACGUGUA | -2.75 ± 0.12 | -0.347 ± 0.11
40 | CACCAGCAAUAUUACGCAAG | -0.716 ± 0.093 | -0.12 ± 0.11
41 | CCACAGCAAUAUUACGAGCC | -3.22 ± 0.42 | -2.3 ± 0.31
42 | GAAAAGCAAUAUUACGUAUA | -0.936 ± 0.098 | -0.833 ± 0.12
43 | CCCAAGCAAUAUUACGCCAC | -2.48 ± 0.25 | -1.49 ± 0.22
44 | AUCCAGCAAUAUUACGUACA | -1.28 ± 0.11 | -0.729 ± 0.18
45 | UAUAAGCAAUAUUACGGGAU | -3.79 ± 0.32 | -2.86 ± 0.19
46 | CACUAGCAAUAUUACGAGGC | -4.08 ± 0.42 | -2.38 ± 0.2
47 | CGGGAGCAAUAUUACGGUAG | -3.73 ± 0.29 | -2 ± 0.27
48 | UGCUAGCAAUAUUACGCACU | -2.3 ± 0.11 | -1.11 ± 0.11
49 | UGACAGCAAUAUUACGCCAA | -1.51 ± 0.14 | -0.461 ± 0.12
50 | GGGCAGCAAUAUUACGCUAG | -1.86 ± 0.078 | -0.741 ± 0.11

Row | Sequence | self-splicing fitness (ln) (30 °C) | self-splicing fitness (ln) (37 °C)
51 | CAUGAGCAAUAUUACGUCUA | -2.57 ± 0.17 | -2.28 ± 0.21
52 | CAGCAGCAAUAUUACGUCUG | -3.11 ± 0.14 | -2.85 ± 0.22
53 | CGGUAGCAAUAUUACGGUGG | -0.519 ± 0.092 | -0.124 ± 0.12
54 | AGCGAGCAAUAUUACGGUCA | -2.05 ± 0.12 | -0.626 ± 0.11
55 | AGAAAGCAAUAUUACGCAGG | -2.89 ± 0.15 | -1.4 ± 0.15
56 | AUCAAGCAAUAUUACGAUCG | -3.37 ± 0.2 | -3.55 ± 0.28
57 | GUCCAGCAAUAUUACGUAUU | -0.819 ± 0.078 | -0.174 ± 0.09
58 | CCCAAGCAAUAUUACGACUU | -4.21 ± 0.2 | -2.9 ± 0.17
59 | UUCAAGCAAUAUUACGGCCU | -2.42 ± 0.17 | -0.267 ± 0.15
60 | CCGGAGCAAUAUUACGGCGA | -3.92 ± 0.33 | -2.42 ± 0.48
61 | CUGCAGCAAUAUUACGUCGA | -3.05 ± 0.12 | -1.65 ± 0.1
62 | CAUAAGCAAUAUUACGCAUG | -1.55 ± 0.12 | -2.27 ± 0.23
63 | CUUAAGCAAUAUUACGCCGG | -4.01 ± 0.33 | -1.85 ± 0.25
64 | GGUAAGCAAUAUUACGGGCU | -1.76 ± 0.13 | -0.874 ± 0.12
65 | GCGCAGCAAUAUUACGUACU | -1.32 ± 0.072 | -0.505 ± 0.092
66 | CACAAGCAAUAUUACGUCUG | -1.34 ± 0.07 | -0.0931 ± 0.074
67 | ACUUAGCAAUAUUACGCGGC | -2.71 ± 0.25 | -1.12 ± 0.23
68 | CAUUAGCAAUAUUACGCGCU | -2.9 ± 0.21 | -1.51 ± 0.26
69 | GGAAAGCAAUAUUACGAUCC | -3.2 ± 0.39 | 
70 | UACUAGCAAUAUUACGUCUC | -3.59 ± 0.32 | -2.93 ± 0.31
71 | ACCUAGCAAUAUUACGACUU | -0.837 ± 0.094 | 0.22 ± 0.1
72 | AUUGAGCAAUAUUACGAUAG | -4.02 ± 0.28 | -3.03 ± 0.3
73 | CUGCAGCAAUAUUACGGUGG | -3.9 ± 0.19 | -3.09 ± 0.24
74 | AAAGAGCAAUAUUACGCGUU | -2.13 ± 0.14 | -1.32 ± 0.14
75 | CGGCAGCAAUAUUACGCCAG | -1.53 ± 0.21 | 

Row | Sequence | self-splicing fitness (ln) (30 °C) | self-splicing fitness (ln) (37 °C)
76 | GAUAAGCAAUAUUACGUUAU | -2.81 ± 0.1 | -1.63 ± 0.1
77 | CACAAGCAAUAUUACGAUAU | -3.34 ± 0.21 | -2.52 ± 0.15
78 | AUAUAGCAAUAUUACGGGGU | -2.23 ± 0.18 | -2.25 ± 0.29
79 | GGGGAGCAAUAUUACGCUAG | -2.63 ± 0.27 | 
80 | UGAAAGCAAUAUUACGCUAC | -3.01 ± 0.28 | -1.75 ± 0.33
81 | UCUAAGCAAUAUUACGCUAC |  | -1.73 ± 0.45
82 | AAAUAGCAAUAUUACGAUAG | -3.17 ± 0.27 | -2.49 ± 0.23
83 | UCGUAGCAAUAUUACGCAGG | -2.49 ± 0.18 | -2.17 ± 0.21
84 | UCGCAGCAAUAUUACGCUCC | -2.9 ± 0.46 | 
85 | AUGCAGCAAUAUUACGACGG | -1.74 ± 0.11 | -1.41 ± 0.14
86 | CGAGAGCAAUAUUACGGGCU | -3.67 ± 0.22 | -2.18 ± 0.28
87 | CUUGAGCAAUAUUACGUAAG | -1.68 ± 0.1 | -0.582 ± 0.13
88 | UCCCAGCAAUAUUACGGUUG | -2.97 ± 0.17 | -1.79 ± 0.15
89 | ACAAAGCAAUAUUACGUGGC | -3.72 ± 0.21 | -2.91 ± 0.18
90 | AUAUAGCAAUAUUACGCACC | -0.862 ± 0.2 | -0.94 ± 0.18
91 | UCAGAGCAAUAUUACGCGCU |  | -1.62 ± 0.29
92 | CGUGAGCAAUAUUACGUUUG | -2.04 ± 0.12 | -1.5 ± 0.21
93 | CGGCAGCAAUAUUACGCCAC | -2.97 ± 0.23 | -1.52 ± 0.3
94 | CUAUAGCAAUAUUACGAGCG | 0.114 ± 0.086 | 0.29 ± 0.11
95 | UCGCAGCAAUAUUACGUUGC |  | -4.15 ± 0.42
96 | GCGAAGCAAUAUUACGGUAC | -2.89 ± 0.17 | -1.2 ± 0.15
97 | AUAUAGCAAUAUUACGCGGA | -1.65 ± 0.26 | -1.67 ± 0.17
98 | GUACAGCAAUAUUACGGAGA | -3.87 ± 0.35 | -2.81 ± 0.21
99 | UAACAGCAAUAUUACGGUGU | -2.93 ± 0.11 | -2.01 ± 0.12
100 | ACAAAGCAAUAUUACGCCAU | -3.96 ± 0.2 | -2.24 ± 0.14
